In EP4491631A1:

Legend:
[1] = biological target: CD122/CD132 complex (His-tagged, Acro Biosystem ILG-H5283) (UniProt P14784); assay: SPR, CD122/CD132 captured on NTA chip
[2] = biological target: IL-2R on murine splenocytes (mouse) (UniProt P16297); assay: cell-based or functional assay
Chain of IL-2R on murine splenocytes (mouse) (P16297 27-539, chain 1 of 2): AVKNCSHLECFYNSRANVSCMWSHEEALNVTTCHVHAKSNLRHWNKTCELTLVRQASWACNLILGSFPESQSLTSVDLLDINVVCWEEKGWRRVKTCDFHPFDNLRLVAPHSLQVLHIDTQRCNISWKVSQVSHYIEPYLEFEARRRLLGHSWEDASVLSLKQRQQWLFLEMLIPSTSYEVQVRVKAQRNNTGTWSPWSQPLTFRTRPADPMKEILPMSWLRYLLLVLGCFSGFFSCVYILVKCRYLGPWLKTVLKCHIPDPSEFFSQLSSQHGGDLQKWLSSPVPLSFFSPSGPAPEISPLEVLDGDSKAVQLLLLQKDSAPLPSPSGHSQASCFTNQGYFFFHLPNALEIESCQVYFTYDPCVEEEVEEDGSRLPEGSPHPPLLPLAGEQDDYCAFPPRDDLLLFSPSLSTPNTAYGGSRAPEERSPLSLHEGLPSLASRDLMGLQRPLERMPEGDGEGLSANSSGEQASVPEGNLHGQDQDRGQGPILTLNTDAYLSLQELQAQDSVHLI
Chain of IL-2R on murine splenocytes (mouse) (P34902 23-369, chain 2 of 2, further chain): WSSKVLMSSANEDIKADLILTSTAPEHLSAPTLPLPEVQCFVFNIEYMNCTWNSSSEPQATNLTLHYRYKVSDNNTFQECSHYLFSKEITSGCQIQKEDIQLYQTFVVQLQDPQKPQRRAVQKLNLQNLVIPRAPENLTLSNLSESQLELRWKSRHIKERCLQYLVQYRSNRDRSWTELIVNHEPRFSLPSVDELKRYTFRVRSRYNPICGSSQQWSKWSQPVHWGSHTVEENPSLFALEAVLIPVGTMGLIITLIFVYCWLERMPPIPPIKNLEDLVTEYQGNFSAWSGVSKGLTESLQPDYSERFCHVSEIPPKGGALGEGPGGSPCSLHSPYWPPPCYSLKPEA

Chain of CD122/CD132 complex (His-tagged, Acro Biosystem ILG-H5283) (P14784 27-239 limits assumed, chain 1 of 2): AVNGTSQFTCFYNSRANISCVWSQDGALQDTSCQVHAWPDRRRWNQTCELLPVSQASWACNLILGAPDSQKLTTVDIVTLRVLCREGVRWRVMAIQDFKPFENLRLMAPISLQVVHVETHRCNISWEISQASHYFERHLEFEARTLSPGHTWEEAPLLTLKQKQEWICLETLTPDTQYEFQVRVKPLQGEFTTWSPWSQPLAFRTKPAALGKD
Chain of CD122/CD132 complex (His-tagged, Acro Biosystem ILG-H5283) (P31785 23-262 limits assumed, chain 2 of 2, further chain): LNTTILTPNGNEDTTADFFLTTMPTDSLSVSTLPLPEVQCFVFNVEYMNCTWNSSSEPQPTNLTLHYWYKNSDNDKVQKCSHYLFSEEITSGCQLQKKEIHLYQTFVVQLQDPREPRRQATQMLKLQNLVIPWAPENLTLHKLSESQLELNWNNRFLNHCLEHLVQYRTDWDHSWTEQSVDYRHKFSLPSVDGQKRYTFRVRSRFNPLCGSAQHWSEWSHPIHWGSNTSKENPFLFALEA

Substance Proleukin (ligand) has a Kd [1] of 0.42 nM, an EC50 CD8 cells (pSTAT5) [2] of 4.1 nM and an EC50 NK cells (pSTAT5) [2] of 1.4 nM. For the same substance, the EC50 Treg cells (pSTAT5) [2] was less than 16 pM, the EC50 pSTAT5 on CD8 cells [2] was 11.9 nM and the EC50 pSTAT5 on NK cells [2] was 2.51 nM. The EC50 pSTAT5 on Treg cells [2] was less than 20 pM.
